T1: ADAMTS-4 (as used in Example 4; form not stated) (Homo sapiens (Human)) (UniProt O75173)
T1 sequence: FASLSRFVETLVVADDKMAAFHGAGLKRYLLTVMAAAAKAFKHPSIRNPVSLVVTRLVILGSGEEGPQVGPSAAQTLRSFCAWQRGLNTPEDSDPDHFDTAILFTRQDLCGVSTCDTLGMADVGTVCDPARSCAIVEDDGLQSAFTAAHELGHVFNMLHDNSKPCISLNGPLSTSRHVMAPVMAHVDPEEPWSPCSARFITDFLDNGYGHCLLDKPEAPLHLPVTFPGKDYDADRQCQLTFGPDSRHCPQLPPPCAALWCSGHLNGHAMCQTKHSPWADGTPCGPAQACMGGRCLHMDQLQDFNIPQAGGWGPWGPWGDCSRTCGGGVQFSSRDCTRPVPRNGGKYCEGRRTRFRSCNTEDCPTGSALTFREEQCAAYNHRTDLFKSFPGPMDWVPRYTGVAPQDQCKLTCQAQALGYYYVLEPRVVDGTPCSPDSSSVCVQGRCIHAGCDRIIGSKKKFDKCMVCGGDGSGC


Legend:
[1] = molecular target: catalytic domain of stromelysin 1 (MMP-3(ΔC)) (Homo sapiens (Human)) (UniProt P08254); assay: enzyme inhibition kinetics, Ki(app), as in Example 1
[2] = molecular target: soluble form of TACE in which the transmembrane and C-terminal cytoplasmic domains are deleted (TACE R651) (human) (UniProt P78536)
[3] = molecular target: T1, ADAMTS-4 (as used in Example 4; form not stated) (Homo sapiens (Human)); assay: GST-IGD-FLAG substrate assay, Ki(app)
[4] = molecular target: ADAMTS-5 (Homo sapiens (Human)) (UniProt Q9UNA0); assay: GST-IGD-FLAG substrate assay, Ki(app)
[5] = molecular target: soluble form of TACE in which the transmembrane and C-terminal cytoplasmic domains are deleted (TACE R651) (human) (UniProt P78536); assay: TACE inhibition kinetics, Ki(app), pH 9.0, fit with equation 3 (cooperative)
[6] = molecular target: soluble form of TACE in which the transmembrane and C-terminal cytoplasmic domains are deleted (TACE R651) (human) (UniProt P78536); assay: TACE inhibition kinetics at pH 7.5
[7] = molecular target: TACE/ADAM17 on human monocytic cells (THP-1 cells; monocyte-derived macrophages) (human) (UniProt P78536)
[8] = molecular target: full-length collagenase 1 (MMP-1) (Homo sapiens (Human)) (UniProt P03956); assay: enzyme inhibition kinetics, Ki(app), as in Example 1
full-length collagenase 1 (MMP-1) (Homo sapiens (Human)), sequence (P03956 100-469 limits assumed): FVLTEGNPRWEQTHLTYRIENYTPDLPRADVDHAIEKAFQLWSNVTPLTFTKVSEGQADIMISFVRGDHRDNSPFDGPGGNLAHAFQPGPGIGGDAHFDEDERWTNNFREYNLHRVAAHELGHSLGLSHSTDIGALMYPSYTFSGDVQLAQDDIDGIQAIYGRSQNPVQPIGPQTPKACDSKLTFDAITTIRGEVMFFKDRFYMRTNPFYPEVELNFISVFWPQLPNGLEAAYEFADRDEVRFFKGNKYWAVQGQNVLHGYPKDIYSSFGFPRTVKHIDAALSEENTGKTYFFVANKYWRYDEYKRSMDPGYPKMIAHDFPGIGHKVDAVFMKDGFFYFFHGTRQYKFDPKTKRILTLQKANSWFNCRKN

[9] = molecular target: gelatinase A (MMP-2) (Homo sapiens (Human)) (UniProt P08253); assay: as above
gelatinase A (MMP-2) (Homo sapiens (Human)), sequence (P08253 110-660 limits assumed): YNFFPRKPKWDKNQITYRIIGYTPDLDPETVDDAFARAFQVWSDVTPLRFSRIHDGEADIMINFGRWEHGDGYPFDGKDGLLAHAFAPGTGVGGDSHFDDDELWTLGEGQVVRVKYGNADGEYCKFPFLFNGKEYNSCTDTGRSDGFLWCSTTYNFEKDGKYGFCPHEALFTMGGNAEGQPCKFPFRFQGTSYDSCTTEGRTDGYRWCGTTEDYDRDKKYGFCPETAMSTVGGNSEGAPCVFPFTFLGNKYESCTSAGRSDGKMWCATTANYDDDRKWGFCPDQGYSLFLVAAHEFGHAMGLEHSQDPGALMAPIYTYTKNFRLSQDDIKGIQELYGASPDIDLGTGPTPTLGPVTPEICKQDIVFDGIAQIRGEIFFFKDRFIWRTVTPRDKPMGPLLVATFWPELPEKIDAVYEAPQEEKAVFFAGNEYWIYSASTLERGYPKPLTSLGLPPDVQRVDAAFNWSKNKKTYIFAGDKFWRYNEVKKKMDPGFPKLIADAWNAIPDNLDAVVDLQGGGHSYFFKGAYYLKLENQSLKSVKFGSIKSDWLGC

[10] = molecular target: full-length collagenase 1 (MMP-1) (Homo sapiens (Human)) (UniProt P03956); assay: MMP-1 inhibition under the conditions used for TACE activity measurements

Binder	Ki [1] [nM]	inhibition of TACE activity (% inhibition at 100 nM) [2]	Ki [3] [nM]	Ki [4] [nM]	Ki [5] [nM]	Ki [6] [nM]	LPS stimulated TNFα release by monocyte-derived macrophages (ELISA) [7] [nM]	Ki [8] [nM]	Ki [9] [nM]	Ki [10] [nM]
(-2A)N-TIMP-3 (protein) AACTCSPSHPQDAFCNSDIVIRAKVVGKKLVKEGPFGTLVYTIKQMKMYRGFTKMPHVQYIHTEASESLCGLKLEVNKYQYLLTGRVYDGKMYTGLCNFVERWDQLTLSQRKGLNYRYHLGCN	> 250	80 to 90								
wild-type N-TIMP-3 (N-terminal inhibitory domain of tissue inhibitor of metalloproteinase-3), C-terminally His-tagged (protein) CTCSPSHPQDAFCNSDIVIRAKVVGKKLVKEGPFGTLVYTIKQMKMYRGFTKMPHVQYIHTEASESLCGLKLEVNKYQYLLTGRVYDGKMYTGLCNFVERWDQLTLSQRKGLNYRYHLGCN	1.8		2.4	0.4	13.7	26	180	8.2	5.1	1.6

Source: US20090318342A1, “Compounds” (IMPERIAL INNOVATIONS LIMITED, priority 2005, published 2009)
